According to publication PMC7845616, “Convergent Evolution of a Promiscuous 3-Hydroxypropionyl-CoA Dehydratase/Crotonyl-CoA Hydratase in Crenarchaeota and Thaumarchaeota” (mSphere, 2021):

How the values were obtained:
[1] = substrate: C=CC(=O)SCCNC(=O)CCNC(=O)[C@H](O)C(C)(C)COP(=O)(O)OP(=O)(O)OC[C@H]1O[C@@H](n2cnc3c(N)ncnc32)[C@H](O)[C@@H]1OP(=O)(O)O; experiment: UHPLC of 3-hydroxypropionyl-CoA formed; type: biochemical, Nitrosopumilus maritimus; conditions: 100 mM Tris-HCl pH 7.8, 30°C
Excerpt: UHPLC of 3-hydroxypropionyl-CoA formed on Nmar_1308

[2] = substrate: C/C=C/C(=O)SCCNC(=O)CCNC(=O)[C@H](O)C(C)(C)COP(=O)(O)OP(=O)(O)OC[C@H]1O[C@@H](n2cnc3c(N)ncnc32)[C@H](O)[C@@H]1OP(=O)(O)O; experiment: UHPLC of 3-hydroxybutyryl-CoA formed; type: biochemical, Nitrosopumilus maritimus; conditions: 100 mM Tris-HCl pH 7.8, 30°C
Excerpt: UHPLC of 3-hydroxybutyryl-CoA formed on Nmar_1308

[3] = substrate: CC(C)(COP(=O)(O)OP(=O)(O)OC[C@H]1O[C@@H](n2cnc3c(N)ncnc32)[C@H](O)[C@@H]1OP(=O)(O)O)[C@@H](O)C(=O)NCCC(=O)NCCSC(=O)CCO; experiment: dehydration coupled to Ccr, UHPLC; type: biochemical, Nitrosopumilus maritimus; conditions: 100 mM Tris-HCl pH 7.8, 30°C, 1 mM NADPH, 50 mM NaHCO3, Ccr
Excerpt: (§1) dehydration coupled to Ccr, UHPLC on Nmar_1308

[4] = substrate: C[C@H](O)CC(=O)SCCNC(=O)CCNC(=O)[C@H](O)C(C)(C)COP(=O)(O)OP(=O)(O)OC[C@H]1O[C@@H](n2cnc3c(N)ncnc32)[C@H](O)[C@@H]1OP(=O)(O)O; experiment: dehydration coupled to Ccr, UHPLC; type: biochemical, Nitrosopumilus maritimus; conditions: 100 mM Tris-HCl pH 7.8, 30°C, 1 mM NADPH, 50 mM NaHCO3, Ccr
Excerpt: as §1

[5] = substrate: CCCCC/C=C/C(=O)SCCNC(=O)CCNC(=O)[C@H](O)C(C)(C)COP(=O)(O)OP(=O)(O)OC[C@H]1O[C@@H](n2cnc3c(N)ncnc32)[C@H](O)[C@@H]1OP(=O)(O)O; experiment: UHPLC of 3-hydroxyoctanoyl-CoA formed; type: biochemical, Nitrosopumilus maritimus; conditions: 100 mM Tris-HCl pH 7.8, 30°C
Excerpt: UHPLC of 3-hydroxyoctanoyl-CoA formed on Nmar_1308

[6] = substrate: C/C=C/C(=O)SCCNC(=O)CCNC(=O)[C@H](O)C(C)(C)COP(=O)(O)OP(=O)(O)OC[C@H]1O[C@@H](n2cnc3c(N)ncnc32)[C@H](O)[C@@H]1OP(=O)(O)O; experiment: UHPLC of 3-hydroxybutyryl-CoA formed; type: biochemical, Syntrophothermus lipocalidus; conditions: 100 mM Tris-HCl pH 7.8, 42°C
Excerpt: UHPLC of 3-hydroxybutyryl-CoA formed on Slip_2089

[7] = substrate: CC(C)(COP(=O)(O)OP(=O)(O)OC[C@H]1O[C@@H](n2cnc3c(N)ncnc32)[C@H](O)[C@@H]1OP(=O)(O)O)[C@@H](O)C(=O)NCCC(=O)NCCSC(=O)CCO; experiment: dehydration coupled to Ccr, UHPLC; type: biochemical, Syntrophothermus lipocalidus; conditions: 100 mM Tris-HCl pH 7.8, 42°C, 1 mM NADPH, 50 mM NaHCO3, Ccr
Excerpt: (§2) dehydration coupled to Ccr, UHPLC on Slip_2089

[8] = substrate: C[C@H](O)CC(=O)SCCNC(=O)CCNC(=O)[C@H](O)C(C)(C)COP(=O)(O)OP(=O)(O)OC[C@H]1O[C@@H](n2cnc3c(N)ncnc32)[C@H](O)[C@@H]1OP(=O)(O)O; experiment: dehydration coupled to Ccr, UHPLC; type: biochemical, Syntrophothermus lipocalidus; conditions: 100 mM Tris-HCl pH 7.8, 42°C, 1 mM NADPH, 50 mM NaHCO3, Ccr
Excerpt: as §2

[9] = substrate: C=CC(=O)SCCNC(=O)CCNC(=O)[C@H](O)C(C)(C)COP(=O)(O)OP(=O)(O)OC[C@H]1O[C@@H](n2cnc3c(N)ncnc32)[C@H](O)[C@@H]1OP(=O)(O)O; experiment: UHPLC of 3-hydroxypropionyl-CoA formed; type: biochemical, Syntrophothermus lipocalidus; conditions: 100 mM Tris-HCl pH 7.8, 42°C
Excerpt: UHPLC of 3-hydroxypropionyl-CoA formed on Slip_2089

[10] = substrate: C=C(C)C(=O)SCCNC(=O)CCNC(=O)[C@H](O)C(C)(C)COP(=O)(O)OP(=O)(O)OC[C@H]1O[C@@H](n2cnc3c(N)ncnc32)[C@H](O)[C@@H]1OP(=O)(O)O; experiment: UHPLC of 3-hydroxy-2-methylpropionyl-CoA formed; type: biochemical, Syntrophothermus lipocalidus; conditions: 100 mM Tris-HCl pH 7.8, 42°C
Excerpt: UHPLC of 3-hydroxy-2-methylpropionyl-CoA formed on Slip_2089

[11] = substrate: CCCCC/C=C/C(=O)SCCNC(=O)CCNC(=O)[C@H](O)C(C)(C)COP(=O)(O)OP(=O)(O)OC[C@H]1O[C@@H](n2cnc3c(N)ncnc32)[C@H](O)[C@@H]1OP(=O)(O)O; experiment: UHPLC of 3-hydroxyoctanoyl-CoA formed; type: biochemical, Syntrophothermus lipocalidus; conditions: 100 mM Tris-HCl pH 7.8, 42°C
Excerpt: UHPLC of 3-hydroxyoctanoyl-CoA formed on Slip_2089

B1: Nmar_1308 (Nitrosopumilus maritimus SCM1) (protein)
chain: MSLVTTSTSDGICTVKINRPDKLNAMNTDVAKELIKTFEELNHNDDVKVIILTGEGEKAFSAGADIEYMSKISADESVEYAKTGQLVTATVELVKQPTIAAVNGFALGGGCELAMSCDIRIAADTAKLGQPEVTIGVPPGWGGTQRLMRIVGIAKAKELVYTGKMIKAEEAKEIGLVNHVVPLASLQEEALKMAQQIAGNSTMGVQMSKVAINKGRNADLDTGLGLEILAWRNCFTHPDRQERMTAFVNKSKK
notes: pET16b, His10-tagged, expressed in E. coli Rosetta 2 (DE3), Ni-NTA purified
Question: Which results are given for B1?
Answer: Km [1]: 0.71 ± 0.07 mM; Vmax [1]: 11400 ± 392 µmol/min/mg; kcat/Km [1]: 8.09e+06 M⁻¹ s⁻¹; Km [2]: 0.45 ± 0.03 mM; Vmax [2]: 3790 ± 111 µmol/min/mg; kcat/Km [2]: 4.25e+06 M⁻¹ s⁻¹; Km [3]: 0.17 ± 0.03 mM; Vmax [3]: 38 µmol/min/mg; kcat/Km [3]: 113000 M⁻¹ s⁻¹; Km [4]: 0.36 ± 0.06 mM; Vmax [4]: 1520 ± 92 µmol/min/mg; kcat/Km [4]: 2.12e+06 M⁻¹ s⁻¹; Km [5]: 0.12 ± 0.02 mM; Vmax [5]: 47 µmol/min/mg; kcat/Km [5]: 198000 M⁻¹ s⁻¹

B2: Slip_2089 (Syntrophothermus lipocalidus DSM 12680) (protein)
chain: MEDKQKSVKCSIDDQGIAIVTINRPHALNALNREVFTELGKVFDELRDNPRARVVVLTGEGQKAFAAGSDITEMKECSVLEAREFAMLANRTQGKIETFPKPVIAAVNGFALGGGCEVAMACDIRIASSNAKFGQPEINLGIIPGGGGTQRLARLVGLGRAKELVYSGGIIDAQRAYEIGLVNKVVPAEALMSEALGLAAKIASKSMPVLMLAKVAFNHGFSMDLDKALQFEIECFAECFGTDDHTEGMSAFIERREPAFKDK
notes: as for B1
Question: Which results are given for B2?
Answer: Km [6]: 0.16 ± 0.02 mM; kcat/Km [6]: 143000 M⁻¹ s⁻¹; Km [7]: 0.35 ± 0.06 mM; kcat/Km [7]: 2000 M⁻¹ s⁻¹; Km [8]: 1.31 ± 0.31 mM; kcat/Km [8]: 41000 M⁻¹ s⁻¹; Km [9]: 0.40 ± 0.05 mM; kcat/Km [9]: 138000 M⁻¹ s⁻¹; Km [10]: 1.01 ± 0.22 mM; kcat/Km [10]: 500 M⁻¹ s⁻¹; Km [11]: 0.21 ± 0.04 mM; kcat/Km [11]: 562000 M⁻¹ s⁻¹
